Results as given in IntAct's records for PubMed 25081058.

B1: Tyrosine-protein phosphatase non-receptor type 18 (Homo sapiens), Q99952-1 (parent)
chain: MSRSLDSARSFLERLEARGGREGAVLAGEFSDIQACSAAWKADGVCSTVAGSRPENVRKNRYKDVLPYDQTRVILSLLQEEGHSDYINGNFIRGVDGSLAYIATQGPLPHTLLDFWRLVWEFGVKVILMACREIENGRKRCERYWAQEQEPLQTGLFCITLIKEKWLNEDIMLRTLKVTFQKESRSVYQLQYMSWPDRGVPSSPDHMLAMVEEARRLQGSGPEPLCVHCSAGCGRTGVLCTVDYVRQLLLTQMIPPDFSLFDVVLKMRKQRPAAVQTEEQYRFLYHTVAQMFCSTLQNASPHYQNIKENCAPLYDDALFLRTPQALLAIPRPPGGVLRSISVPGSPGHAMADTYAVVQKRGAPAGAGSGTQTGTGTGTGARSAEEAPLYSKVTPRAQRPGAHAEDARGTLPGRVPADQSPAGSGAYEDVAGGAQTGGLGFNLRIGRPKGPRDPPAEWTRV

Variants of: B1
Settings: with fbw1a_human BTRC

| effect of a mutation on the interaction | Variant |
| --- | --- |
| disrupting interaction strength | S423A |
| decreasing interaction strength | S419A |
